Measurements reported in US6632624.

Target: CGS20
Assay: competition: pancreastatin peptide (0.5 µg per tube) added in second incubation of CGS06/CGS20* IRMA

B1: synthetic peptide corresponding to pancreastatin (SEQ ID NO:1 amino acids 250 to 301 of human CgA) (peptide)
peptide: GESRSEALAVDGAGKPGAEEAQDPEGKGEQEHSQQKEEEEEMAVVPQGLFRG
% inhibition: 86%
